# Results from the MegaScale stability set (Tsuboyama et al. 2023).
# B1: 6NMW (parent)
# chain: QGDIVVALYPYDGIHPDDLSFKKGEKMKVLEEHGEWWKAKSLLTKKEGFIPSNYVAKLN
# Variants of: B1
# Assay: folding stability dG (cDNA display proteolysis); higher = more stable
# Settings: PBS, room temperature
row,Variant,folding stability dG [kcal/mol]
1,P51W,1.33
2,P51M,1.59
3,P51S,1.19
4,P51C,2.34
5,P51L,1.54
6,P51K,1.62
7,P51F,1.25
8,P51Y,1.26
9,P51R,1.7
10,P51E,0.647
11,P51G,0.115
12,P51D,1.08
13,P51I,0.759
14,P51Q,1.09
15,P51H,1.83
16,P51A,0.249
17,P51V,-0.225
18,K57N,2.44
19,K57D,1.86
20,K57T,2.85
21,K57A,3.02

row,Variant,folding stability dG [kcal/mol]
1,K57V,3.39
2,K57M,2.85
3,K57Q,2.68
4,K57H,3.25
5,K57E,2.02
6,K57L,3.61
7,K57P,3.63
8,K57G,2.27
9,K57C,3
10,K57F,3.96
11,K57S,2.94
12,K57R,4.37
13,K57I,3.23
14,K57W,3.87
15,K57Y,4.22
16,V55A,1.47
17,V55H,-0.417
18,V55P,-0.707
19,V55L,1.18
20,V55W,0.199
21,V55T,1.68

row,Variant,folding stability dG [kcal/mol]
1,V55E,-0.519
2,V55Y,0.703
3,V55G,0.112
4,V55M,1.6
5,V55S,-0.255
6,V55F,4.1
7,V55I,2.12
8,V55K,0.066
9,V55C,2.7
10,L58Q,2.38
11,L58A,2.62
12,L58D,2.77
13,L58F,3.26
14,L58R,1.73
15,L58N,1.86
16,L58P,2.38
17,L58H,2.43
18,L58C,3.88
19,L58I,3.89
20,L58E,2.77
21,L58K,1.65

row,Variant,folding stability dG [kcal/mol]
1,L58G,1.84
2,L58M,3.45
3,Y54Q,1.44
4,Y54G,0.76
5,Y54W,2.19
6,Y54V,1.29
7,Y54P,-0.857
8,Y54K,2.44
9,Y54T,1.16
10,Y54M,3.17
11,Y54I,2.17
12,Y54S,1.81
13,Y54C,2.85
14,Y54D,-0.435
15,Y54H,2.9
16,Y54R,2.74
17,Y54N,1.04
18,Y54E,0.003
19,Y54F,3.51
20,Y54A,2.58
21,Y54L,3.67
